# From paper PMC8904551
# Tests used:
# [1] = target: β2 adrenergic receptor, the receptor part of the β2AR-Spep SPASM sensor (UniProt P07550); assay: FRET or BRET; steady-state ΔFRET of the β2AR-Spep SPASM sensor in native HEK293T membranes; 100 µM clenbuterol (partial agonist) against buffer, 5 min, 25 °C, FRET buffer; both partners on one chain
# [2] = target: β2 adrenergic receptor, the receptor part of the β2AR-Spep SPASM sensor (UniProt P07550); assay: FRET or BRET; steady-state ΔFRET of the β2AR-Spep SPASM sensor in native HEK293T membranes; 100 µM clenbuterol with 30 µM soluble Qpep (Gαq peptide), 5 min, 25 °C, FRET buffer; both partners on one chain
# [3] = target: β2 adrenergic receptor, the receptor part of the β2AR-Spep SPASM sensor (UniProt P07550); assay: FRET or BRET; steady-state ΔFRET of the β2AR-Spep SPASM sensor in native HEK293T membranes; 100 µM isoproterenol with 30 µM soluble Qpep (Gαq peptide), 5 min, 25 °C, FRET buffer; both partners on one chain
# [4] = target: β2 adrenergic receptor, the receptor part of the β2AR-Spep SPASM sensor (UniProt P07550); assay: FRET or BRET; stopped-flow decay of the FRET ratio (mCit/mCer) of the β2AR-Spep SPASM sensor in native HEK293T membranes, preincubated with 100 µM isoproterenol and quenched with 10 µM Nb6B9; FRET buffer; triple exponential fit with one decay constrained to the decay without Nb6B9; both partners on one chain
# [5] = target: N-terminally biotinylated Gαs-peptide (bio-Spep); assay: pull-down; affinity sequestration as above, with 10 µM Qpep (Gαq peptide) added to the 30 µM bio-Spep; 100 µM isoproterenol; streptavidin Dynabeads; FRET buffer + 0.1 mg/mL BSA
# [6] = target: N-terminally biotinylated Gαs-peptide (bio-Spep); assay: pull-down; affinity sequestration: β2AR-mCer native membranes with 100 µM isoproterenol and 30 µM bio-Spep, 5 min at room temperature, then streptavidin Dynabeads for 5 min; fraction bound = 1 - fraction of mCerulean counts in the supernatant; FRET buffer + 0.1 mg/mL BSA
fold weaker interaction (ΔFRET) with clenbuterol than with isoproterenol [1],"fold increase of the interaction (ΔFRET) with Qpep against without, clenbuterol [2]","fold increase of the interaction (ΔFRET) with Qpep against without, isoproterenol [3]","koff, strong interaction state (slow decay) [4]","koff, weak interaction state (fast decay) [4]","fraction of receptor bound, with 10 µM Qpep [5]",fraction of receptor bound [6],Substance
6 fold,5 fold,2 fold,0.006 s⁻¹,0.3 s⁻¹,–,–,"Gαs-peptide (Spep), the 27 amino acid Gα C-terminal peptide of the β2AR-Spep SPASM sensor"
–,–,–,–,–,17%,5%,β2AR-mCerulean (from UniProt P07550 1-413) (receptor)
